In the supplement of paper PMC10126150:
± gives the standard deviation of the averaged measurements.

System: ATP
Assay: switch fluorescence ratio, 500 uM ATP over buffer (Cy3 cluster intensity, sum of 5 cycles each) (fold (ratio)); higher = stronger signal-on switching upon ATP binding; sequences stand for … in TCGTCGGCAGCGTCAGATGTGTATAAGAGACAGTTTTTTTTTTTTTTTTTTTTTTTTT…TC
Conditions: aptamer strand: ATP DNA aptamer (quencher-CACCTGGGGGAGTATTGCGGAGGAAGG + anchor), 100 nM annealed; ATP concentration: 500 uM
Method in brief: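 Imaging in selection buffer was followed by imaging after 15 min with 500 uM ATP at 22 °C, for Cy3-labelled switching-strand clusters annealed to 100 nM quencher-labelled ATP aptamer on a modified Illumina MiSeq flow-cell. Five of these buffer/ATP cycles ran, separated by NaOH stripping and re-annealing. The fluorescence ratio per cluster is summed target-cycle over summed buffer-cycle Cy3 intensity, averaged per switch-domain sequence; clusters outside 100-1000 RFU were removed.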
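Note: ATP exposure 15 min at 22 °C before imaging.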

TTGGAATGGG
switch fluorescence ratio: 1 ± 0.026

TTGGACAGTT
switch fluorescence ratio: 0.99 ± 0.04

TTGGACGGGG
switch fluorescence ratio: 1.07 ± 0.035

TTGGACGTGT
switch fluorescence ratio: 0.946 ± 0.027

TTGGACTCGG
switch fluorescence ratio: 0.997 ± 0.034

TTGGAGAGGT
switch fluorescence ratio: 1.02 ± 0.019

TTGGAGGCCC
switch fluorescence ratio: 0.9801 ± 0.0029

TTGGAGGGG
switch fluorescence ratio: 0.988 ± 0.025

TTGGAGGTAG
switch fluorescence ratio: 1 ± 0.037

TTGGAGGTTT
switch fluorescence ratio: 1.17 ± 0.24

TTGGATACGG
switch fluorescence ratio: 0.995 ± 0.031

TTGGATCTTA
switch fluorescence ratio: 0.972 ± 0.02

TTGGATTAGT
switch fluorescence ratio: 0.982 ± 0.011

TTGGATTCCC
switch fluorescence ratio: 0.977 ± 0.064

TTGGATTCGG
switch fluorescence ratio: 0.972 ± 0.017

TTGGATTTTG
switch fluorescence ratio: 0.978 ± 0.043

TTGGCAGTG
switch fluorescence ratio: 0.993 ± 0.019

TTGGCATAAG
switch fluorescence ratio: 1.16 ± 0.28

TTGGCATGTT
switch fluorescence ratio: 1.005 ± 0.0093

TTGGCCCGGC
switch fluorescence ratio: 1.52 ± 0.72

TTGGCCGTGT
switch fluorescence ratio: 1.02 ± 0.028

TTGGCCTTCC
switch fluorescence ratio: 2.19 ± 0.74

TTGGCGACAT
switch fluorescence ratio: 1.02 ± 0.021

TTGGCGAGTT
switch fluorescence ratio: 1.007 ± 0.002

TTGGCGGACG
switch fluorescence ratio: 0.984 ± 0.026

TTGGCGGAGT
switch fluorescence ratio: 1.01 ± 0.032

TTGGCGGCTA
switch fluorescence ratio: 0.982 ± 0.024

TTGGCGTATC
switch fluorescence ratio: 0.946 ± 0.041

TTGGCGTTCG
switch fluorescence ratio: 1.01 ± 0.025

TTGGCTGCGG
switch fluorescence ratio: 0.95 ± 0.021

TTGGCTGGTG
switch fluorescence ratio: 1.03 ± 0.04

TTGGCTTAAA
switch fluorescence ratio: 1.007 ± 0.0097

TTGGCTTTGT
switch fluorescence ratio: 0.985 ± 0.022

TTGGCTTTTA
switch fluorescence ratio: 0.99017 ± 0.00047

TTGGGAAAAA
switch fluorescence ratio: 1.14 ± 0.23

TTGGGAAAGA
switch fluorescence ratio: 1.21 ± 0.34

TTGGGAACGG
switch fluorescence ratio: 1.03 ± 0.034

TTGGGAAGGA
switch fluorescence ratio: 1.02 ± 0.042

TTGGGACAAT
switch fluorescence ratio: 1.04 ± 0.044

TTGGGACTTT
switch fluorescence ratio: 1.03 ± 0.022

TTGGGAGAAG
switch fluorescence ratio: 0.993 ± 0.051

TTGGGATGGG
switch fluorescence ratio: 0.998 ± 0.015

TTGGGCAAAA
switch fluorescence ratio: 0.985 ± 0.065

TTGGGCAGGA
switch fluorescence ratio: 1.06 ± 0.047

TTGGGCAGTG
switch fluorescence ratio: 1.02 ± 0.045

TTGGGCCAGG
switch fluorescence ratio: 1.14 ± 0.12

TTGGGCCCTG
switch fluorescence ratio: 1.06 ± 0.014

TTGGGCGAGG
switch fluorescence ratio: 1.025 ± 0.0075

TTGGGCTCTG
switch fluorescence ratio: 0.988 ± 0.018

TTGGGCTTAT
switch fluorescence ratio: 1.001 ± 0.0066

TTGGGGAAAT
switch fluorescence ratio: 1.31 ± 0.68

TTGGGGAATG
switch fluorescence ratio: 0.999 ± 0.049

TTGGGGAGTT
switch fluorescence ratio: 1.01 ± 0.044

TTGGGGATCG
switch fluorescence ratio: 0.983 ± 0.056

TTGGGGCCAA
switch fluorescence ratio: 1.01 ± 0.051

TTGGGGCCCT
switch fluorescence ratio: 1.01 ± 0.029

TTGGGGCCGA
switch fluorescence ratio: 0.956 ± 0.017

TTGGGGCGCG
switch fluorescence ratio: 0.989 ± 0.051

TTGGGGCTGA
switch fluorescence ratio: 0.993 ± 0.037

TTGGGGGAGC
switch fluorescence ratio: 0.976 ± 0.018

TTGGGGGCCA
switch fluorescence ratio: 0.9898 ± 0.0041

TTGGGGGCGG
switch fluorescence ratio: 1.01 ± 0.015

TTGGGGGCTC
switch fluorescence ratio: 0.998 ± 0.024

TTGGGGGGAC
switch fluorescence ratio: 1.03 ± 0.029

TTGGGGGTT
switch fluorescence ratio: 1.03 ± 0.017

TTGGGGTAG
switch fluorescence ratio: 1.02 ± 0.033

TTGGGGTAGG
switch fluorescence ratio: 1.01 ± 0.032

TTGGGGTCCT
switch fluorescence ratio: 0.984 ± 0.023

TTGGGGTTAG
switch fluorescence ratio: 0.988 ± 0.017

TTGGGGTTAT
switch fluorescence ratio: 0.975 ± 0.032

TTGGGGTTGC
switch fluorescence ratio: 1.01 ± 0.034

TTGGGTAAGA
switch fluorescence ratio: 1.02 ± 0.028

TTGGGTATTA
switch fluorescence ratio: 0.9656 ± 0.0024

TTGGGTATTT
switch fluorescence ratio: 0.986 ± 0.021

TTGGGTCCGA
switch fluorescence ratio: 1.01 ± 0.049

TTGGGTGAAG
switch fluorescence ratio: 1.01 ± 0.025

TTGGGTGCGG
switch fluorescence ratio: 1 ± 0.066

TTGGGTGGAG
switch fluorescence ratio: 0.991 ± 0.023

TTGGGTGGGT
switch fluorescence ratio: 1 ± 0.038

TTGGGTGGTA
switch fluorescence ratio: 0.988 ± 0.028

TTGGGTGTAG
switch fluorescence ratio: 1.04 ± 0.025

TTGGGTTTCT
switch fluorescence ratio: 0.97996 ± 0.00043

TTGGGTTTG
switch fluorescence ratio: 0.964 ± 0.011

TTGGGTTTTT
switch fluorescence ratio: 1.04 ± 0.1

TTGGTAATAG
switch fluorescence ratio: 1.03 ± 0.015

TTGGTAATGT
switch fluorescence ratio: 1.03 ± 0.016

TTGGTACTTA
switch fluorescence ratio: 0.995 ± 0.013

TTGGTACTTT
switch fluorescence ratio: 0.9841 ± 0.0051

TTGGTAGCTA
switch fluorescence ratio: 0.9889 ± 0.0098

TTGGTAGGGC
switch fluorescence ratio: 0.97013 ± 0.0006

TTGGTAGGGG
switch fluorescence ratio: 1.03 ± 0.077

TTGGTAGTCA
switch fluorescence ratio: 0.992 ± 0.037

TTGGTATAGT
switch fluorescence ratio: 0.9999 ± 0.0047

TTGGTATGGG
switch fluorescence ratio: 1.03 ± 0.044

TTGGTCAAAA
switch fluorescence ratio: 1.022 ± 0.0089

TTGGTCCGGT
switch fluorescence ratio: 0.988 ± 0.018

TTGGTCCGTC
switch fluorescence ratio: 1.01 ± 0.047

TTGGTCGGGG
switch fluorescence ratio: 0.991 ± 0.023

TTGGTCGGTC
switch fluorescence ratio: 0.985 ± 0.036

TTGGTCTAGA
switch fluorescence ratio: 1.01 ± 0.054

TTGGTCTTGT
switch fluorescence ratio: 1.001 ± 0.006

TTGGTGAAGG
switch fluorescence ratio: 1.01 ± 0.023

TTGGTGAGTT
switch fluorescence ratio: 0.981 ± 0.029

TTGGTGCCCG
switch fluorescence ratio: 1.01 ± 0.037

TTGGTGGATC
switch fluorescence ratio: 1.03 ± 0.03

TTGGTGGTTT
switch fluorescence ratio: 0.988 ± 0.027

TTGGTGTACT
switch fluorescence ratio: 1.01 ± 0.019

TTGGTGTGTC
switch fluorescence ratio: 1.04 ± 0.07

TTGGTGTTGT
switch fluorescence ratio: 0.989 ± 0.027

TTGGTGTTTT
switch fluorescence ratio: 1.02 ± 0.03

TTGGTTACTG
switch fluorescence ratio: 1.03 ± 0.07

TTGGTTATGC
switch fluorescence ratio: 0.998 ± 0.045

TTGGTTATGT
switch fluorescence ratio: 0.969 ± 0.017

TTGGTTGAAC
switch fluorescence ratio: 0.946 ± 0.032

TTGGTTGGAG
switch fluorescence ratio: 0.996 ± 0.021

TTGGTTGTAT
switch fluorescence ratio: 1 ± 0.011

TTGGTTGTGG
switch fluorescence ratio: 0.972 ± 0.018

TTGGTTGTGT
switch fluorescence ratio: 1.01 ± 0.015

TTGGTTTCTT
switch fluorescence ratio: 1.01 ± 0.023

TTGGTTTGCG
switch fluorescence ratio: 0.962 ± 0.017

TTGGTTTGGG
switch fluorescence ratio: 0.98 ± 0.022

TTGGTTTGTG
switch fluorescence ratio: 1.01 ± 0.035

TTGGTTTTAG
switch fluorescence ratio: 1 ± 0.033

TTGGTTTTGA
switch fluorescence ratio: 0.988 ± 0.042

TTGTAAAA
switch fluorescence ratio: 0.95579 ± 0.00088

TTGTAAGGTC
switch fluorescence ratio: 1 ± 0.031

TTGTAAGTGG
switch fluorescence ratio: 0.97 ± 0.0078

TTGTAATAGT
switch fluorescence ratio: 1.026 ± 0.00026

TTGTACAA
switch fluorescence ratio: 0.993 ± 0.017

TTGTAGAGGG
switch fluorescence ratio: 1.01 ± 0.029

TTGTATAATT
switch fluorescence ratio: 0.969 ± 0.038

TTGTATAGGG
switch fluorescence ratio: 1 ± 0.025

TTGTATCAGG
switch fluorescence ratio: 1 ± 0.02

TTGTATCTTC
switch fluorescence ratio: 0.993 ± 0.041

TTGTATGAAG
switch fluorescence ratio: 0.951 ± 0.061

TTGTATGGTT
switch fluorescence ratio: 1.02 ± 0.019

TTGTATGTTT
switch fluorescence ratio: 0.98 ± 0.023

TTGTATTAAT
switch fluorescence ratio: 0.975 ± 0.031

TTGTATTATG
switch fluorescence ratio: 1.008 ± 0.0095

TTGTATTT
switch fluorescence ratio: 0.979 ± 0.022

TTGTCACGG
switch fluorescence ratio: 0.986 ± 0.035

TTGTCCAAAT
switch fluorescence ratio: 0.986 ± 0.0099

TTGTCCAGGA
switch fluorescence ratio: 0.977 ± 0.048

TTGTCCCCGG
switch fluorescence ratio: 1.58 ± 0.68

TTGTCGTATC
switch fluorescence ratio: 1 ± 0.019

TTGTGAGGGC
switch fluorescence ratio: 1.02 ± 0.041

TTGTGAGGGT
switch fluorescence ratio: 0.981 ± 0.033

TTGTGAGGTT
switch fluorescence ratio: 1.06 ± 0.088

TTGTGATAGT
switch fluorescence ratio: 1.0025 ± 0.00064

TTGTGATGGC
switch fluorescence ratio: 1.03 ± 0.11

TTGTGATGTC
switch fluorescence ratio: 1.031 ± 0.0048

TTGTGCGCGC
switch fluorescence ratio: 1.022 ± 0.0018

TTGTGGAGCT
switch fluorescence ratio: 0.999 ± 0.016

TTGTGGATGG
switch fluorescence ratio: 0.978 ± 0.039

TTGTGGCAAG
switch fluorescence ratio: 1 ± 0.018

TTGTGGCCGT
switch fluorescence ratio: 1.039 ± 0.0035

TTGTGGCGCC
switch fluorescence ratio: 0.958 ± 0.021

TTGTGGGATA
switch fluorescence ratio: 1.01 ± 0.011

TTGTGGGCAG
switch fluorescence ratio: 1.03 ± 0.032

TTGTGGGTCG
switch fluorescence ratio: 0.984 ± 0.031

TTGTGGTTGC
switch fluorescence ratio: 1.02 ± 0.013

TTGTGGTTGT
switch fluorescence ratio: 0.966 ± 0.016

TTGTGTAATT
switch fluorescence ratio: 1.06 ± 0.05

TTGTGTACCG
switch fluorescence ratio: 0.96 ± 0.048

TTGTGTATCA
switch fluorescence ratio: 0.993 ± 0.035

TTGTGTTACG
switch fluorescence ratio: 0.996 ± 0.047

TTGTGTTGG
switch fluorescence ratio: 1.03 ± 0.019

TTGTTAAAGT
switch fluorescence ratio: 1 ± 0.038

TTGTTAAATG
switch fluorescence ratio: 1.02 ± 0.056

TTGTTAATTT
switch fluorescence ratio: 1.02 ± 0.05

TTGTTACAGA
switch fluorescence ratio: 1.004 ± 0.0078

TTGTTACTGG
switch fluorescence ratio: 1.01 ± 0.03

TTGTTAGGCT
switch fluorescence ratio: 1.03 ± 0.041

TTGTTAGGTG
switch fluorescence ratio: 1.132 ± 0.0016

TTGTTAGTAT
switch fluorescence ratio: 0.996 ± 0.021

TTGTTAGTCT
switch fluorescence ratio: 0.982 ± 0.024

TTGTTAGTGG
switch fluorescence ratio: 1.01 ± 0.031

TTGTTATAGG
switch fluorescence ratio: 1.06 ± 0.14

TTGTTCCTTT
switch fluorescence ratio: 0.9847 ± 0.0076

TTGTTCGTTT
switch fluorescence ratio: 0.986 ± 0.025

TTGTTGAATA
switch fluorescence ratio: 1.003 ± 0.0016

TTGTTGGGCC
switch fluorescence ratio: 1.01 ± 0.036

TTGTTGGTGG
switch fluorescence ratio: 0.9856 ± 0.0066

TTGTTGTGAC
switch fluorescence ratio: 0.994 ± 0.028

TTGTTGTGCT
switch fluorescence ratio: 0.961 ± 0.033

TTGTTGTTCG
switch fluorescence ratio: 1.01 ± 0.034

TTGTTTACCG
switch fluorescence ratio: 0.9557 ± 0.0045

TTGTTTAGGA
switch fluorescence ratio: 0.9763 ± 0.0012

TTGTTTCAAG
switch fluorescence ratio: 1.01 ± 0.029

TTGTTTCTTG
switch fluorescence ratio: 0.981 ± 0.049

TTGTTTGGGT
switch fluorescence ratio: 0.984 ± 0.014

TTGTTTTCCA
switch fluorescence ratio: 0.987 ± 0.018

TTGTTTTGCT
switch fluorescence ratio: 0.999 ± 0.073

TTGTTTTTCG
switch fluorescence ratio: 0.978 ± 0.027

TTGTTTTTTG
switch fluorescence ratio: 1.01 ± 0.034

TTTAAAAAAG
switch fluorescence ratio: 1.02 ± 0.028

TTTAAAAGAT
switch fluorescence ratio: 1.01 ± 0.035

TTTAAAAGGT
switch fluorescence ratio: 1 ± 0.011

TTTAAAATGG
switch fluorescence ratio: 0.9998 ± 0.0073

TTTAAACCGG
switch fluorescence ratio: 1.02 ± 0.016
